From patent publication US20040175720A1 (NEW YORK UNIVERSITY, published 2004)

T1: B42-NIF-1 (full-length), B42 activation domain fusion expressed from pJG4-5 in yeast (human, UniProt Q9H4Z2 1-1342)
T1 construct: also called NIF-1 expressed as a B42-fusion
T1 sequence: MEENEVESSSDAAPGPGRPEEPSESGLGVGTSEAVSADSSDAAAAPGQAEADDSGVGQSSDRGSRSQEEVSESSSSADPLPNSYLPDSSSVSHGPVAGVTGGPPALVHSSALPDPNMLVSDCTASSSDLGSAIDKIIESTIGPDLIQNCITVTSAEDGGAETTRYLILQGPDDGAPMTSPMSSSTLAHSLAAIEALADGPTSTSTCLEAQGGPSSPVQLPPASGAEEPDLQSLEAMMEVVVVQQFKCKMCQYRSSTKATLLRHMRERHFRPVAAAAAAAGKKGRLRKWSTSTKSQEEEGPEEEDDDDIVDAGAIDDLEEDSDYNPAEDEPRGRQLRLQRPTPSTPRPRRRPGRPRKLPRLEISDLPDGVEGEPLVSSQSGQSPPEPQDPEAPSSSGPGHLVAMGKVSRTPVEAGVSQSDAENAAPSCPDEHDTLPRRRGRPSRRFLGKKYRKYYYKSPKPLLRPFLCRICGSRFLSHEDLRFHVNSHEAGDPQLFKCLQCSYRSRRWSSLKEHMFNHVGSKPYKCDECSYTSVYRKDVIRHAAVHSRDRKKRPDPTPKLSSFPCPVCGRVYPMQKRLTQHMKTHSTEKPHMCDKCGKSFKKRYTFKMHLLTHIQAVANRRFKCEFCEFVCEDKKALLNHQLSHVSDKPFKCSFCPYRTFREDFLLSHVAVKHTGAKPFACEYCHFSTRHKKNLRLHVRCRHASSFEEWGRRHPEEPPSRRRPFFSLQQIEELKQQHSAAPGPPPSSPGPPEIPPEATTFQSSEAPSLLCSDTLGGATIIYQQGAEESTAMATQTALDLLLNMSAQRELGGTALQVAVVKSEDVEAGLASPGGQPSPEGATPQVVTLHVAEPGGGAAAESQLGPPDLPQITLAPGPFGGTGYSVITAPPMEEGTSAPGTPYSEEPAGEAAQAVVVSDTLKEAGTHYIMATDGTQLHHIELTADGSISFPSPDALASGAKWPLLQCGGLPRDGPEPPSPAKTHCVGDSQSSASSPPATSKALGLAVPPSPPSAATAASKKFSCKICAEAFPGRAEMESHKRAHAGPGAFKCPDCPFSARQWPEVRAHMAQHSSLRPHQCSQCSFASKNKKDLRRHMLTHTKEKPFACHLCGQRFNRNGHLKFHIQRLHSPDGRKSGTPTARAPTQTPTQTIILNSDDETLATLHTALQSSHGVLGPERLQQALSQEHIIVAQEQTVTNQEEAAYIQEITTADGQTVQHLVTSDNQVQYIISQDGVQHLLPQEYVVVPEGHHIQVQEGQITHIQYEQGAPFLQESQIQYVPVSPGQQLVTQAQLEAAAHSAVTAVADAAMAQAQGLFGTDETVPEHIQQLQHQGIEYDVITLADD


Target: T1, B42-NIF-1 (full-length), B42 activation …
Test: yeast two-hybrid, B42-NIF-1 (full-length) against LexA-LBD, β-galactosidase
Experimental: To examine for this possibility, the interaction of B42-NIF-1 (full-length), conditionally expressed from pJG4-5, was studied with LexA fusions of nuclear receptor LBDs (cTRα, ERa, RXRα, GR, RARα, and PPARα) in yeast, as shown in FIG. 7. In addition, a LexA-fusion of full-length cTRα was also tested against B42-NIF-1 (full-length) and gave similar results as with the cTRα LBD. […] To document that the LexA-LBD fusions were expressed and responded to ligand in yeast, similar studies were carried out with B42-NRC.

| Binder | binding result |
| --- | --- |
| LexA-cTRα LBD (LexA fusion of the ligand binding domain of cTRα) (receptor, UniProt P0A7C2 1-202, looked up, domain: LexA DBD;domain: LBD; also called cTRa) MKALTARQQEVFDLIRDHISQTGMPPTRAEIAQRLGFRSPNAAEEHLKALARKGVIEIVSGASRGIRLLQEEEEGLPLVGRVAAGEPLLAQQHIEGHYQVDPSLFKPNADFLLRVSGMSMKDIGIMDGDLLAVHKTQDVRNGQVVVARIDDEVTVKRLKKQGNKVELLPENSEFKPIVVDLRQQSFTIEGLAVGVIRNGDWLMDLVLDDSKRVAKRKLIEENRERRRKEEMIKSLQHRPSPSAEEWELIHVVTEAHRSTNAQGSHWKQKRKFLPEDIGQSPMASMPDGDKVDLEAFSEFTKIITPAITRVVDFAKKLPMFSELPCEDQIILLKGCCMEIMSLRAAVRYDPESETLTLSGEMAVKREQLKNGGLGVVSDAIFDLGKSLSAFNLDDTEVALLQAVLLMSSDRTGLICVDKIEKCQETYLLAFEHYINYRKHNIPHFWPKLLMKVTDLRMIGACHASRFLHMKVECPTELFPPLFLEVFEDQEV | no binding |
| LexA-human ERα-LBD (LexA fusion of the ligand binding domain of hERα) (receptor, UniProt P0A7C2 1-202, looked up, domain: LexA DBD;domain: LBD; also called hERa; ERa) MKALTARQQEVFDLIRDHISQTGMPPTRAEIAQRLGFRSPNAAEEHLKALARKGVIEIVSGASRGIRLLQEEEEGLPLVGRVAAGEPLLAQQHIEGHYQVDPSLFKPNADFLLRVSGMSMKDIGIMDGDLLAVHKTQDVRNGQVVVARIDDEVTVKRLKKQGNKVELLPENSEFKPIVVDLRQQSFTIEGLAVGVIRNGDWLSAGDMRAANLWPSPLMIKRSKKNSLALSLTADQMVSALLDAEPPILYSEYDPTRPFSEASMMGLLTNLADRELVHMINWAKRVPGFVDLTLHDQVHLLECAWLEILMIGLVWRSMEHPGKLLFAPNLLLDRNQGKCVEGMVEIFDMLLATSSRFRMMNLQGEEFVCLKSIILLNSGVYTFLSSTLKSLEEKDHIHRVLDKITDTLIHLMAKAGLTLQQQHQRLAQLLLILSHIRHMSNKGMEHLYSMKCKNVVPLYDLLLEMLDAHRLHAPTSRGGASVEETDQSHLATAGSTSSHSLQKYYITGEAEGFPATV | no binding |
| LexA-hRXRα LBD (LexA fusion of the ligand binding domain of hRXRα) (receptor, UniProt P0A7C2 1-202, looked up, domain: LexA DBD;domain: LBD) MKALTARQQEVFDLIRDHISQTGMPPTRAEIAQRLGFRSPNAAEEHLKALARKGVIEIVSGASRGIRLLQEEEEGLPLVGRVAAGEPLLAQQHIEGHYQVDPSLFKPNADFLLRVSGMSMKDIGIMDGDLLAVHKTQDVRNGQVVVARIDDEVTVKRLKKQGNKVELLPENSEFKPIVVDLRQQSFTIEGLAVGVIRNGDWLMGMKREAVQEERQRGKDRNENEVESTSSANEDMPVERILEAELAVEPKTETYVEANMGLNPSSPNDPVTNICQAADKQLFTLVEWAKRIPHFSELPLDDQVILLRAGWNELLIASFSHRSIAVKDGILLATGLHVHRNSAHSAGVGAIFDRVLTELVSKMRDMQMDKTELGCLRAIVLFNPDSKGLSNPAEVEALREKVYASLEAYCKHKYPEQPGRFAKLLLRLPALRSIGLKCLEHLFFFKLIGDTPIDTFLMEMLEAPHQMT | no binding |
| LexA-hGR LBD (LexA fusion of the ligand binding domain of hGR) (receptor, UniProt P0A7C2 1-202, looked up, domain: LexA DBD;domain: LBD) MKALTARQQEVFDLIRDHISQTGMPPTRAEIAQRLGFRSPNAAEEHLKALARKGVIEIVSGASRGIRLLQEEEEGLPLVGRVAAGEPLLAQQHIEGHYQVDPSLFKPNADFLLRVSGMSMKDIGIMDGDLLAVHKTQDVRNGQVVVARIDDEVTVKRLKKQGNKVELLPENSEFKPIVVDLRQQSFTIEGLAVGVIRNGDWLGMNLEARKTKKKIKGIQQATTGVSQETSENPGNKTIVPATLPQLTPTLVSLLEVIEPEVLYAGYDSSVPDSTWRIMTTLNMLGGRQVIAAVKWAKAIPGFRNLHLDDQMTLLQYSWMFLMAFALGWRSYRQSSANLLCFAPDLIINEQRMTLPCMYDQCKHMLYVSSELHRLQVSYEEYLCMKTLLLLSSVPKDGLKSQELFDEIRMTYIKELGKAIVKREGNSSQNWQRFYQLTKLLDSMHEVVENLLNYCFQTFLDKTMSIEFPEMLAEIITNQIPKYSNGNIKKLLFHQK | no binding |
